Source: paper PMC11530556

Target: full-length Titin N2B unique sequence (N2B-us) single-molecule construct, 6His-Avi-2I27-N2B-2I27-Spy (human)
Assay: magnetic tweezers single-molecule manipulation; full-length N2B-us tether; jump to 8 pN procedure: 1 pN for 10 s, 8 pN for 20 s, back to 1 pN; bead height difference at 1 pN; 200 nM FHL2; five tethers

Sequence of full-length Titin N2B unique sequence (N2B-us) single-molecule construct, 6His-Avi-2I27-N2B-2I27-Spy (human) (Q8WZ42 3717-4288): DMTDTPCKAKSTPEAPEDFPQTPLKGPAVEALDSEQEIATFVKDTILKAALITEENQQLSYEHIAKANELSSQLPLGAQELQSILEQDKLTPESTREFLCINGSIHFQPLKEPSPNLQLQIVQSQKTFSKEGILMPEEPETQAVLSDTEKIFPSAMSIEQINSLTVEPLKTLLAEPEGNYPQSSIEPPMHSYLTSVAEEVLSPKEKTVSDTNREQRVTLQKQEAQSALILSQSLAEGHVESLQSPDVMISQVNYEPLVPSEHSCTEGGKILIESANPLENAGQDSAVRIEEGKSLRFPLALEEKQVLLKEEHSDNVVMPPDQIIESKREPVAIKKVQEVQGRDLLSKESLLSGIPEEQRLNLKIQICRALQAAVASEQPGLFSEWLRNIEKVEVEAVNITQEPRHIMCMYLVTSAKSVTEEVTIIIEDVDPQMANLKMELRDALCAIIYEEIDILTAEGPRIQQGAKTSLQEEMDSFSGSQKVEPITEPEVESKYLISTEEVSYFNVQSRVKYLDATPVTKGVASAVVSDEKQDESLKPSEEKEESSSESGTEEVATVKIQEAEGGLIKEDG

average extension difference at 1 pN before and after 20 s at 8 pN, with 200 nM FHL2: 10 nm
Substance: Recombinant GST-FHL2 protein (four-and-a-half LIM domain protein 2) (natural protein)
